These results are taken from patent publication US20220265759A1 (BOARD OF TRUSTEES OF THE UNIVERSITY OF ILLIOIS, published 2022).

The target in one assay is calmodulin (CaM) (human, UniProt P0DP23 2-149). The assay can be described thus: Co-IP in endothelial cells; not affected by Myr-CBD7 pretreatment.
Another assay concerns the target T1, mouse eNOS (mouse, UniProt P70313 2-1202).
T1 construct: whole, on cells; Endogenous protein in mouse wound homogenates used for Co-IP; also called eNOS (mouse wounds)
T1 sequence (looked up): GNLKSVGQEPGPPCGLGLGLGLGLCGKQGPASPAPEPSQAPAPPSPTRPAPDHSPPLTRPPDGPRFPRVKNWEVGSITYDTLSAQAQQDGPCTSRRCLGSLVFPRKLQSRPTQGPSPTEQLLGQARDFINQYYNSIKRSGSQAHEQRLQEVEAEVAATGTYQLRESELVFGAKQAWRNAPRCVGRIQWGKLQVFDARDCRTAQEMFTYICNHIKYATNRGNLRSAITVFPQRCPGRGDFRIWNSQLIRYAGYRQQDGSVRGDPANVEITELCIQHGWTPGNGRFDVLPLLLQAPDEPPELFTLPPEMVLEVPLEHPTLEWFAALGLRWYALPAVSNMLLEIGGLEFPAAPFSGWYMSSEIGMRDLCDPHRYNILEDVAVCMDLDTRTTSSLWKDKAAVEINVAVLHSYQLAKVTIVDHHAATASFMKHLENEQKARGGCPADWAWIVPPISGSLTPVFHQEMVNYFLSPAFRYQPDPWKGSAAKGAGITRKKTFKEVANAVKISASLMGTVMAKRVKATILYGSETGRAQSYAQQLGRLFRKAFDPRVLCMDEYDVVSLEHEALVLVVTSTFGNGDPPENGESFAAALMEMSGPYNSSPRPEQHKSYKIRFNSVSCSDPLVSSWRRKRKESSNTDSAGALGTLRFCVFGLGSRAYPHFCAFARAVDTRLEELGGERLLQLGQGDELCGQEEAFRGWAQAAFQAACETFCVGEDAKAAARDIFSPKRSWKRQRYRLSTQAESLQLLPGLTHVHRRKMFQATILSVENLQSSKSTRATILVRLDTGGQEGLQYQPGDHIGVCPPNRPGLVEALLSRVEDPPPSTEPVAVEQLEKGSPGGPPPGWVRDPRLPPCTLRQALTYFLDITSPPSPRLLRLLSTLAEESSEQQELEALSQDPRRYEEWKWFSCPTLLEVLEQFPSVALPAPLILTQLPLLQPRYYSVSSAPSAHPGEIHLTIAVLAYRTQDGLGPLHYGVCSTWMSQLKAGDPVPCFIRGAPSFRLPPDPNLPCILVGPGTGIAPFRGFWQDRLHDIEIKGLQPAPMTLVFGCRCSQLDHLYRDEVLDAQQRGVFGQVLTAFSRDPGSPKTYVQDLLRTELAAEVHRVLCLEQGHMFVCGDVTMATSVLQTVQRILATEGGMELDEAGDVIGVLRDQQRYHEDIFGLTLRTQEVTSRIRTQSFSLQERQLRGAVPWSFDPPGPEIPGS
As to the kind of experiment: Co-IP from mouse wounds (FIG. 4).

B1: human endothelial nitric oxide synthase (eNOS) (enzyme)
chain: GNLKSVAQEPGPPCGLGLGLGLGLCGKQGPATPAPEPSRAPASLLPPAPEHSPPSSPLTQPPEGPKFPRVKNWEVGSITYDTLSAQAQQDGPCTPRRCLGSLVFPRKLQGRPSPGPPAPEQLLSQARDFINQYYSSIKRSGSQAHEQRLQEVEAEVAATGTYQLRESELVFGAKQAWRNAPRCVGRIQWGKLQVFDARDCRSAQEMFTYICNHIKYATNRGNLRSAITVFPQRCPGRGDFRIWNSQLVRYAGYRQQDGSVRGDPANVEITELCIQHGWTPGNGRFDVLPLLLQAPDDPPELFLLPPELVLEVPLEHPTLEWFAALGLRWYALPAVSNMLLEIGGLEFPAAPFSGWYMSTEIGTRNLCDPHRYNILEDVAVCMDLDTRTTSSLWKDKAAVEINVAVLHSYQLAKVTIVDHHAATASFMKHLENEQKARGGCPADWAWIVPPISGSLTPVFHQEMVNYFLSPAFRYQPDPWKGSAAKGTGITRKKTFKEVANAVKISASLMGTVMAKRVKATILYGSETGRAQSYAQQLGRLFRKAFDPRVLCMDEYDVVSLEHETLVLVVTSTFGNGDPPENGESFAAALMEMSGPYNSSPRPEQHKSYKIRFNSISCSDPLVSSWRRKRKESSNTDSAGALGTLRFCVFGLGSRAYPHFCAFARAVDTRLEELGGERLLQLGQGDELCGQEEAFRGWAQAAFQAACETFCVGEDAKAAARDIFSPKRSWKRQRYRLSAQAEGLQLLPGLIHVHRRKMFQATIRSVENLQSSKSTRATILVRLDTGGQEGLQYQPGDHIGVCPPNRPGLVEALLSRVEDPPAPTEPVAVEQLEKGSPGGPPPGWVRDPRLPPCTLRQALTFFLDITSPPSPQLLRLLSTLAEEPREQQELEALSQDPRRYEEWKWFRCPTLLEVLEQFPSVALPAPLLLTQLPLLQPRYYSVSSAPSTHPGEIHLTVAVLAYRTQDGLGPLHYGVCSTWLSQLKPGDPVPCFIRGAPSFRLPPDPSLPCILVGPGTGIAPFRGFWQERLHDIESKGLQPTPMTLVFGCRCSQLDHLYRDEVQNAQQRGVFGRVLTAFSREPDNPKTYVQDILRTELAAEVHRVLCLERGHMFVCGDVTMATNVLQTVQRILATEGDMELDEAGDVIGVLRDQQRYHEDIFGLTLRTQEVTSRIRTQSFSLQERQLRGAVPWAFDPPGSDTNSP
notes: whole, on cells; Endogenous intracellular / membrane-associated protein of human endothelial cells; co-immunoprecipitated from lysates
Consider B1, for which the binding result in the assay with calmodulin (CaM) is recorded as “binds”.

B2: mouse CCR10 (receptor, UniProt Q9JL21 1-362, looked up)
chain: MGTKPTEQVSWGLYSGYDEEAYSVGPLPELCYKADVQAFSRAFQPSVSLMVAVLGLAGNGLVLATHLAARRTTRSPTSVHLLQLALADLLLALTLPFAAAGALQGWNLGSTTCRAISGLYSASFHAGFLFLACISADRYVAIARALPAGQRPSTPSRAHLVSVFVWLLSLFLALPALLFSRDGPREGQRRCRLIFPESLTQTVKGASAVAQVVLGFALPLGVMAACYALLGRTLLAARGPERRRALRVVVALVVAFVVLQLPYSLALLLDTADLLAARERSCSSSKRKDLALLVTGGLTLVRCSLNPVLYAFLGLRFRRDLRRLLQGGGCSPKPNPRGRCPRRLRLSSCSAPTETHSLSWDN
notes: whole, on cells; Endogenous protein in mouse wound homogenates used for Co-IP; also called CCR10 (mouse wounds)
Regarding B2, in the assay with mouse eNOS, the binding result is “binds”.
